Numbered stars: 1 amine (or outer) side, 2 acyl side, 3 side chain; on linkers, the order of the positions; unused ones are H or OH. Square brackets hold non-standard residues; d marks the D form. Ends that are not written are not given here. Cysteamide = C(CS[*:3])N[*:1]; Mpa = O=C(O)CCS
What was measured:
[1] = system: B3Z (OVA peptide specific T cell line); assay: B3Z T cell activation (β-galactosidase) measure of antigen presentation; format: cell-based, mouse; settings: for processing and presentation of SIINFEKL from GNP, CTL-based method: LKb cells pulsed 2 h with GNP equivalent to 1, 0.1 or 0.01 ug/mL peptide, overnight co-culture with B3Z, FIG. 1E
Protocol: (§1) Next, GNPs were pulsed to the equivalent of 1 ug/mL peptide (Green), 0.1 ug/mL (Blue), or 0.01 ug/mL (Red). After two hours, cells were washed, and subjected to (A-D) flow cytometric labelling with 25.D1.16 (Angel) antibody, or (E) combined with B3Z CTL for overnight co-culture. The next day, cells were lysed and Beta-galactosidase activity was measured.
Another form of epitope-specific antigen presentation is the measurement of T cell activation by the MHCI peptide complex. Here, we used B3Z (OVA peptide specific T cell line), which recognizes […] (SEQ ID NO: 2) the context of K^b. As a convenient measure, this T cell line contains β-galactosidase cloned with the NFAT promoter. Upon peptide recognition and T cell activation, β-galactosidase is expressed and conversion of a detectible substrate serves as an excellent measure of antigen presentation to T cells.
To evaluate this method, we performed a similar experiment as above. LK^b cells were pulsed with […] (SEQ ID NO: 2) peptide, washed, and then co-incubated with B3Z T cell line overnight. The next day, cells were lysed and β-galactosidase was measured using a luminescent substrate. As expected, the resolution of this method was similar to the previous method with the limit of detection at approximately 5 ng/mL.
The […]:Kb-specific T hybridoma (B3Z) (SEQ ID NO: 2) expresses (β-galactosidase upon recognition of peptide-MHC class I complexes and has been described previously (3, 6). T cell hybridomas were maintained in complete RPMI plus 10% FCS and 0.05 mM 2-ME. Activation was measured using the luminescent substrate Galactolight Plus (Applied Biosystems, Foster City, Calif.) according to the manufacturer's instructions. Light intensity was measured using a TopCount NXT plate reader (Perkin Elmer, Waltham, Mass.).
(§2) To assay […] (SEQ ID NO: 2) presentation using a flow cytometric or cell-based method, we pulsed LK^b cells in a 15 mL conical at 37° C. for 2 hrs. Following this incubation, cells were washed once with PBS and then subjected to detection using flow cytometry or added to B3Z cells at an effector to target ratio of 1:1.
(§3) […] (SEQ ID NO: 2), an epitope derived from ovalbumin that is presented in the context of the murine MHCI molecule H-2 Kb, was measured using two methods. One method utilized a TCR-like antibody termed 25.D1.16, also referred to as “Angel”, that recognize […] (SEQ ID NO: 2)/MHCI complex. In addition, we assessed presentation using the B3Z, […] (SEQ ID NO: 2) peptide specific CTL hybridoma, which expresses β-galactosidase under the NFAT (CTL signaling molecule) promoter, which upon activation express beta-gal measured by a light emitting substrate.

LK^b cells = assay: Flow cytometry measure of […] presentation (25.D1.16 antibody); format: cell-based, mouse; settings: for processing and presentation of SIINFEKL from GNP, flow cytometric method: LKb cells pulsed 2 h with GNP equivalent to 1, 0.1 or 0.01 ug/mL peptide, FIG. 1A-D
Protocol: as §1
In order to analyze epitope linkage to nanoparticles, we first optimized a readout assay for the presentation of the epitope released from the nanoparticle. For this purpose, […] (SEQ ID NO: 2) presentation in LK^b cells was evaluated. As mentioned earlier, more than one reagent exists. Of the two methods tested, one is flow cytometry-based, while the other is cell-based. The flow cytometry-based method begins with pulsing LK^b cells with differing amounts of […] (SEQ ID NO: 2) peptide. After allowing enough time for peptide binding to surface K^b molecules, cells were washed and incubated with the 25.D1.16 antibody which is specific to the […]:K^b (SEQ ID NO: 2) complex. Next, the cells were secondarily labelled and subjected to flow cytometry analysis using unpulsed cells as the background reading.
LK^b cells were treated with varying amounts of […] (SEQ ID NO: 2) peptides. […] Cells were then washed two times in PBS and incubated for 30 min on ice with FITC-labeled goat anti-mouse IgG secondary antibody (Caltag Laboratories, Burlingham, Calif.). Finally, cells were washed two times with PBS and resuspended in PBS+0.1% BSA for flow cytometry on a Guava EasyCyte Plus Flow Cytometer (Millipore, Billerica, Mass.) and analyzed using the accompanying software.
as §2, §3

[2] = Aggregation and solubilisation of nanoparticle preparations; format: physicochemical; settings: for solubility of aggregates in alkali: 300 mM NaOH; for aggregation of NP after repeat production: 75% methanol in the synthesis stage; for aggregation of NP after production: first production (95% methanol); for solubility of aggregates: water, 10% acetic acid, PBS, DMSO or DMF
Protocol: The following method was used; 1.5 μmole peptide was dissolved in 2 ml methanol, followed by the addition of 30 μmole GlcC2 in 200 μl methanol, and 116 μl of aqueous gold chloride containing 10 μmole Au. The sample was vortexed for 30 sec, shaken for approximately 5 min and then under rapid vortexing for a total of 30 sec 200 μl of 1M NaBH4 was added, tubes were sealed and then gently shaken for 1.5 h.
Samples were bench spun the supernatant removed and the dark pellet dissolved in 2 ml water, and then transferred to a 10 kDa vivaspin for a total of 4 times 2 ml water washes each of 8 min at 5 Krpm.
Nanoparticles (NPs) were removed from the vivaspins and made up to 500 μl with water, they were then subjected to 15 Krpm bench spin to remove any large aggregates.
NP's 2-5 were produced by a variation using 75% methanol not 95% in the synthesis stage.

Substance	processing and presentation of SIINFEKL from GNP, CTL-based method [1]	processing and presentation of SIINFEKL from GNP, flow cytometric method (LK^b cells)	solubility of aggregates in alkali [2]	aggregation of NP after repeat production [2]	aggregation of NP after production [2]	solubility of aggregates [2]	further results
SIINFEKL (listed as Gallus gallus) [reference compound]	–	–	–	–	–	–	limit of detection ([1]; LK^b cells pulsed with free SIINFEKL peptide, co-incubated with B3Z overnight, luminescent substrate): approximately 5 ng/mL; lowest pulse concentration at which surface SIINFEKL:K^b complexes were detected (LK^b cells; LK^b cells pulsed with free SIINFEKL peptide, unpulsed cells as background): 5 ng/mL
GNP 8: gold nanoparticle with GlcC2 ligands and peptide ligand 8, HS(CH2)2-CONH-FLAAYSIINFEKL ([Mpa]FLAAYSIINFEKL; numbers in words are those of the source; also: on gold nanoparticle with GlcC2 ligands)	good processing and presentation	good processing and presentation	–	–	–	–	presentation from preparations lacking free peptide, B3Z assay ([1]; Sephadex G-50 purified new GNP vs old GNP, overnight incubation, FIG. 3F): confirmed; presentation from preparations lacking free peptide, flow cytometry (LK^b cells; Sephadex G-50 purified new GNP vs old GNP, FIGS. 3C-E): work just as well as those containing peptide
NP 3: gold nanoparticle with GlcC2 ligands and peptide ligand 3, FLSIINFEKL-N—(CH2)2-SH (FLSIINFEKL-Cysteamide; also: on gold nanoparticle with GlcC2 ligands)	–	–	total NP solubilisation	formed aggregates	large near complete aggregation	not soluble	–
NP2: gold nanoparticle with GlcC2 ligands and peptide ligand 2, SIINFEKL-N—(CH2)2-SH	–	–	–	‘normal’ NP	–	–	–
GNP 12: gold nanoparticle with GlcC2 ligands and peptide ligand 12, HS—(CH2)10-(CH2OCH2)7-CONH-FLAAYSIINFEKL ({HS‑(CH2)10‑(CH2OCH2)7‑CO}-FLAAYSIINFEKL; also: on gold nanoparticle with GlcC2 ligands)	good processing and presentation	good processing and presentation	–	–	–	–	–
NP 4: gold nanoparticle with GlcC2 ligands and peptide ligand 4, FLAAYSIINFEKL-N—(CH2)2-SH (FLAAYSIINFEKL-Cysteamide; also: on gold nanoparticle with GlcC2 ligands)	–	–	total NP solubilisation	formed aggregates	large near complete aggregation	not soluble	–
